Numbered stars: 1 amine (or outer) side, 2 acyl side, 3 side chain; on linkers, the order of the positions; unused ones are H or OH. Bridge positions count the residues as written; N and C are the ends. Square brackets hold non-standard residues; d marks the D form. Primed or numbered codes have the meaning given here. * marks the point of attachment. tMeBn(DOTA-PP) = 1,3,5-trimethylbenzylidene, two thioethers to Cys, third CH2 bound to one N of piperazine whose other N bears DOTA, O=C(O)CN1CCN(CC(=O)O)CCN(CC(=O)N2CCN(Cc3cc(C[*:1])cc(C[*:2])c3)CC2)CCN(CC(=O)O)CC1; TBMB(SCH2CH2NH-DOTA) = O=C(O)CN1CCN(CC(=O)O)CCN(CC(=O)NCCSCc2cc(C[*:1])cc(C[*:2])c2)CCN(CC(=O)O)CC1; Ttds(6) = 1,13-Diamino-4,7,10-trioxatridecan-succinamic acid, O=C(CCC(=O)[*:2])NCCCOCCOCCOCCCN[*:1]; Ttds = 1,13-diamino-4,7,10-trioxatridecan-succinamic acid, O=C(CCC(=O)[*:2])NCCCOCCOCCOCCCN[*:1]; 3MeBn = 3-Methylbenzylidene (m-xylylene thioether bridge from α,α′-dibromo-m-xylene); Ttds(4) = spacer between chelator and peptide, O=C(CCC(=O)[*:2])NCCCOCCOCCOCCCN[*:1]; N4Ac = 6-Carboxy-1,4,8,11-tetraazaundecane, an N4-chelator, NCCNCC(CNCCN)C(=O)*; DOTA = O=C(O)CN1CCN(CC(=O)O)CCN(CC(=O)*)CCN(CC(=O)O)CC1; DTPA = O=C(O)CN(CCN(CC(=O)O)CC(=O)O)CCN(CC(=O)O)CC(=O)*; 3Lut = 3,5-lutidylidene (derived from 3,5-lutidine); nBu‑CAyl = n-butylaminocarbonyl, CCCCNC(=O)*; mXylylene = c1cc(C[*:1])cc(C[*:2])c1; PPAc = 4-Carboxymethyl piperazine; Nle = CCCC[C@H](N)C(=O)O; PEG6′ = not defined here; Hexanoyl = CCCCCC(=O)*; βAla = NCCC(=O)O; Sar = CNCC(=O)O
Tests used:
[1] = biological target: T1, human fibroblast activation protein (FAP) on WI-38 fibroblasts (human, UniProt Q12884 1-760); test: competitive FACS, WI-38 cells, Cy5-labeled peptide as competitor; C = pIC50 6.1 to 7.0
T1 construct: FAP-expressing human WI-38 fibroblasts (ECACC)

[2] = biological target: T2, Recombinant human FAP (R&D systems, #3715-SE) (human, UniProt Q12884 26-760); test: cell-based or functional assay
[3] = biological target: T2, Recombinant human FAP (R&D systems, …); test: SPR (Biacore T200), FAP captured on anti-FAP antibody, single cycle kinetics; B = pKD 7.1 to 8.0
[4] = biological target: T3, recombinant human PREP (R&D systems, #4308-SE) (human, UniProt P48147 1-710); test: cell-based or functional assay
T3 sequence: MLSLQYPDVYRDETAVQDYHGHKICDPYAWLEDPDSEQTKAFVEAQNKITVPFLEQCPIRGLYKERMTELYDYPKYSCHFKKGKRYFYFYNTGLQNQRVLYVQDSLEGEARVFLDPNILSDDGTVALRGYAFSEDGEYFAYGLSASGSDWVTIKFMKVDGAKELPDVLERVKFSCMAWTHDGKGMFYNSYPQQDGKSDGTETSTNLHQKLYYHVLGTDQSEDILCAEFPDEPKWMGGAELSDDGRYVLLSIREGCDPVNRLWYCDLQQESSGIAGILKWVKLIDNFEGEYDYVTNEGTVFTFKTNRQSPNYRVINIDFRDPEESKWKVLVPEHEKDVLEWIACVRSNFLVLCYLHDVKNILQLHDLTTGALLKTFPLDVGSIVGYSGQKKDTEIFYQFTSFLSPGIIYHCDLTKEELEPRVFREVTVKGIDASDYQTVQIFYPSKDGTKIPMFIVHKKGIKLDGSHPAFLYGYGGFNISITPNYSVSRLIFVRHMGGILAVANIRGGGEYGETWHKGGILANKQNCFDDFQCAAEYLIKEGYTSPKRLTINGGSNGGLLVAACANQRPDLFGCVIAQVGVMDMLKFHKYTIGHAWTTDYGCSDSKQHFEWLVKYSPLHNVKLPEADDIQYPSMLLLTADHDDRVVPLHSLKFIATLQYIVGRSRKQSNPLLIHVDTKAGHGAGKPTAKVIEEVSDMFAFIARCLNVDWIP

[5] = biological target: Recombinant human DPP4 (R&D systems, #9168-SE) (human, UniProt P27487 29-766); test: cell-based or functional assay
[6] = biological target: T4, human fibroblast activating protein (FAP) on WI-38 fibroblasts (human, UniProt Q12884 1-760); test: competitive FACS on WI-38 cells vs 3 nM Cy5-labeled peptide; pIC50 category A = >8.0
T4 construct: FAP-expressing human WI-38 fibroblasts (ECACC)

[7] = biological target: T4, human fibroblast activating protein …; test: competitive FACS on WI-38 cells vs 3 nM Cy5-labeled peptide; pIC50 category C = 6.1-7.0
[8] = biological target: T4, human fibroblast activating protein …; test: competitive FACS on WI-38 cells vs 3 nM Cy5-labeled peptide; pIC50 category B = 7.1-8.0
[9] = biological target: T5, Human recombinant FAP captured on anti-FAP antibody (SPR) (human, UniProt Q12884 26-760); test: SPR (Biacore), rhFAP captured by anti-FAP antibody; pKD category B = 7.1-8.0
T5 construct: whole entry of human FAP named; also called rhFAP

[10] = biological target: T5, Human recombinant FAP captured on …; test: SPR (Biacore), rhFAP captured by anti-FAP antibody; pKD category A = >8.0

Chain of Recombinant human DPP4 (R&D systems, #9168-SE) (P27487 29-766 limits assumed): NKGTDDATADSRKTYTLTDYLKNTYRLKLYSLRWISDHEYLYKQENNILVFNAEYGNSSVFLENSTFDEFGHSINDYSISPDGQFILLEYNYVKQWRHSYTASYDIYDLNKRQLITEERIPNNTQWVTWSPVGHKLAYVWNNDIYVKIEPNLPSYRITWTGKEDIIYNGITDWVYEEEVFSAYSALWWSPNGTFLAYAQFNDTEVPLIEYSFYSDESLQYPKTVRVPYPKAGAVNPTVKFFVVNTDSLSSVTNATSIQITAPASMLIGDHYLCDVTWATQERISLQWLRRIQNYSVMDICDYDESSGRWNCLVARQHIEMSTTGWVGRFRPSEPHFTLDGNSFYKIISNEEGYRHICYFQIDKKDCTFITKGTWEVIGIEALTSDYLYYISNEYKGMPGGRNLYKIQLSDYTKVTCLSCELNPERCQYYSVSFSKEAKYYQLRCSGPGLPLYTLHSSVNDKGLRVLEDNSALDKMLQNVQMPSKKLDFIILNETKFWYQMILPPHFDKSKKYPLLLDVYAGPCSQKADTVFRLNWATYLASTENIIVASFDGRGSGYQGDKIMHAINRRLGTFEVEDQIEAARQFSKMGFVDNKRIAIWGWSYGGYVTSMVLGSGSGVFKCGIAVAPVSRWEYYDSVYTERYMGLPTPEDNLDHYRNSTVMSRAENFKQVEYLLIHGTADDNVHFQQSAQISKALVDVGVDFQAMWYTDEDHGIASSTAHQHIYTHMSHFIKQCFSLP

B1: Hex-[Cys(tMeBn(DOTA-PP))-Pro-Pro-Thr-Ala-Phe-Cys]-Asp-NH2 (peptide)
peptide: Hexanoyl-CPPTAFCD-NH2
modifications: linker 1-7 via tMeBn(DOTA-PP)
SMILES: CCCCCC(=O)N[C@H]1CSCc2cc(cc(CN3CCN(C(=O)CN4CCN(CC(=O)O)CCN(CC(=O)O)CCN(CC(=O)O)CC4)CC3)c2)CSC[C@@H](C(=O)N[C@@H](CC(=O)O)C(N)=O)NC(=O)[C@H](Cc2ccccc2)NC(=O)[C@H](C)NC(=O)[C@H]([C@@H](C)O)NC(=O)[C@@H]2CCCN2C(=O)[C@@H]2CCCN2C1=O
notes: also called 3BP-3739
[1]
  pIC50: 6.1 to 7 pic50

## N4Ac-[Ttds(6)]ECPPTEFC-OH (linker 3-9 via 3MeBn, also called 3BP-4233) [N4Ac-Ttds-Glu-[Cys-(3MeBn)-Pro-Pro-Thr-Glu-Phe-Cys]-OH]
[2]
  pIC50 Category (Activity): ≤ 6 pIC50
[1]
  pIC50: 6.1 to 7 pic50

B2: DOTA-Ttds-Nle-[Cys(3MeBn)-Pro-Pro-Thr-Glu-Phe-Cys]-NH2 (peptide)
peptide: {DOTA}-[Ttds][Nle]CPPTEFC-NH2
modifications: linker 3-9 via mXylylene
SMILES: CCCC[C@H](NC(=O)CCC(=O)NCCCOCCOCCOCCCNC(=O)CN1CCN(CC(=O)O)CCN(CC(=O)O)CCN(CC(=O)O)CC1)C(=O)N[C@H]1CSCc2cccc(c2)CSC[C@@H](C(N)=O)NC(=O)[C@H](Cc2ccccc2)NC(=O)[C@H](CCC(=O)O)NC(=O)[C@H]([C@@H](C)O)NC(=O)[C@@H]2CCCN2C(=O)[C@@H]2CCCN2C1=O
notes: also called 3BP-3319
[3]
  pKD: 7.1 to 8 pkd
[4]
  pIC50 (PREP): 6.2 pIC50
[5]
  pIC50 (DPP4): < 6 pIC50

B3: Hex-[Cys(tMeBn(DOTA-PP))-Pro-Gln-Phe-Pro-Thr-Cys]-Asp-NH2 (peptide)
peptide: Hexanoyl-CPQFPTCD-NH2
modifications: linker 1-7 via tMeBn(DOTA-PP)
SMILES: CCCCCC(=O)N[C@H]1CSCc2cc(cc(CN3CCN(C(=O)CN4CCN(CC(=O)O)CCN(CC(=O)O)CCN(CC(=O)O)CC4)CC3)c2)CSC[C@@H](C(=O)N[C@@H](CC(=O)O)C(N)=O)NC(=O)[C@H]([C@@H](C)O)NC(=O)[C@@H]2CCCN2C(=O)[C@H](Cc2ccccc2)NC(=O)[C@H](CCC(N)=O)NC(=O)[C@@H]2CCCN2C1=O
notes: also called 3BP-3857
[1]
  pIC50: 6.1 to 7 pic50

B4: DTPA-Ttds-Nle-[Cys-(3MeBn)-Pro-Pro-Thr-Glu-Phe-Cys]-OH (peptide)
peptide: {DTPA}-[Ttds][Nle]CPPTEFC-OH
modifications: linker 3-9 via mXylylene
SMILES: CCCC[C@H](NC(=O)CCC(=O)NCCCOCCOCCOCCCNC(=O)CN(CCN(CCN(CC(=O)O)CC(=O)O)CC(=O)O)CC(=O)O)C(=O)N[C@H]1CSCc2cccc(c2)CSC[C@@H](C(=O)O)NC(=O)[C@H](Cc2ccccc2)NC(=O)[C@H](CCC(=O)O)NC(=O)[C@H]([C@@H](C)O)NC(=O)[C@@H]2CCCN2C(=O)[C@@H]2CCCN2C1=O
notes: also called 3BP-4229
[1]
  pIC50: 6.1 to 7 pic50

B5: nBu-CAyl-[C(tMeBn(NODAGA-AET))-PPTEFC]-OH (peptide)
peptide: CPPTEFC
modifications: N-term nBu-CAyl-; Cys1 and Cys7 thioether-bridged by tMeBn(NODAGA-AET); C-term -OH
notes: also called 3BP-4724
[6]
  pIC50: > 8 pic50

## {N4Ac-PEG6′-βAla}-[Nle]CPPTEFC-OH (linker 2-8 via 3MeBn, also called 3BP-4779) [N4Ac-PEG6-Bal-Nle-[C(3MeBn)-PPTEFC]-OH]
[7]
  pIC50: 6.1 to 7 pic50

## {N4Ac-PEG6′}-[Nle]CPPTEFC-OH (linker 2-8 via 3Lut, also called 3BP-4773) [N4Ac-PEG6-Nle-[C(3Lut)-PPTEFC]-OH]
[8]
  pIC50: 7.1 to 8 pic50
[9]
  pKD: 7.1 to 8 pkd

## {N4Ac-PPAc-Ttds(4)}-[Nle]CPPTEFC-OH (linker 2-8 via 3Lut, also called 3BP-4775) [N4Ac-PPAc-Ttds-Nle-[C(3Lut)-PPTEFC]-OH]
[8]
  pIC50: 7.1 to 8 pic50
[9]
  pKD: 7.1 to 8 pkd

## {nBu‑CAyl}-CPPTEFC-OH (linker 1-7 via tMeBn(NOPO-AET), also called 3BP-4778) [nBu-CAyl-[C(tMeBn(NOPO-AET))-PPTEFC]-OH]
[6]
  pIC50: > 8 pic50
[10]
  pKD: > 8 pkd

## {N4Ac-PPAc-Ttds(4)}-[Nle]CPPTEFC[βAla]-OH (linker 2-8 via 3MeBn, also called 3BP-4784) [N4Ac-PPAc-Ttds-Nle-[C(3MeBn)-PPTEFC]-Bal-OH]
[6]
  pIC50: > 8 pic50
[10]
  pKD: > 8 pkd

## {N4Ac-PPAc-Ttds(4)}-[Nle]CPPTEFCD-OH (linker 2-8 via 3MeBn, also called 3BP-4785) [N4Ac-PPAc-Ttds-Nle-[C(3MeBn)-PPTEFC]D-OH]
[6]
  pIC50: > 8 pic50

B6: nBu-CAyl-[Cys(tMeBn(DOTA-AET))-Nmg-Pro-Thr-Gln-Phe-Cys]-OH (peptide)
peptide: {nBu‑CAyl}-C[Sar]PTQFC-OH
modifications: linker 1-7 via TBMB(SCH2CH2NH-DOTA)
SMILES: CCCCNC(=O)N[C@H]1CSCc2cc(CSCCNC(=O)CN3CCN(CC(=O)O)CCN(CC(=O)O)CCN(CC(=O)O)CC3)cc(c2)CSC[C@@H](C(=O)O)NC(=O)[C@H](Cc2ccccc2)NC(=O)[C@H](CCC(N)=O)NC(=O)[C@H]([C@@H](C)O)NC(=O)[C@@H]2CCCN2C(=O)CN(C)C1=O
notes: also called 3BP-4607
[10]
  pKD: > 8 pkd

B7: nBu-CAyl-[Cys(tMeBn(DOTA-AET))-Nmg-Pro-Thr-Gln-Phe-Cys]-NH2 (peptide)
peptide: {nBu‑CAyl}-C[Sar]PTQFC-NH2
modifications: linker 1-7 via TBMB(SCH2CH2NH-DOTA)
SMILES: CCCCNC(=O)N[C@H]1CSCc2cc(CSCCNC(=O)CN3CCN(CC(=O)O)CCN(CC(=O)O)CCN(CC(=O)O)CC3)cc(c2)CSC[C@@H](C(N)=O)NC(=O)[C@H](Cc2ccccc2)NC(=O)[C@H](CCC(N)=O)NC(=O)[C@H]([C@@H](C)O)NC(=O)[C@@H]2CCCN2C(=O)CN(C)C1=O
notes: also called 3BP-4621
[10]
  pKD: > 8 pkd
